Data as given in patent publication US20150344570A1 (published 2015).

Legend:
[1] = biological target: T1, FcγRIIb extracellular domain with C-terminal His tag (human, UniProt P31994 43-217); assay: SPR (Biacore), captured antibody, FcγR as analyte; relative binding
T1 construct: extracellular domain; expressed in FreeStyle293 cells; analyte in Biacore; also called FcgRIIb; 2b
T1 sequence (looked up): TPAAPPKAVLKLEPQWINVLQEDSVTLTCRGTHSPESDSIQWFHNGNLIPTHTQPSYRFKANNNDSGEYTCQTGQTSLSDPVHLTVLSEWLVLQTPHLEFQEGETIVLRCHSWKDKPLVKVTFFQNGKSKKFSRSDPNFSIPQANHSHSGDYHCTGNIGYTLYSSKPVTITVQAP

[2] = biological target: T2, FcγRIa extracellular domain with C-terminal His tag (human, UniProt P12314 16-292); assay: as above
T2 construct: extracellular domain; expressed in FreeStyle293 cells; analyte in Biacore; also called FcgRI; 1a
T2 sequence (P12314 16-292): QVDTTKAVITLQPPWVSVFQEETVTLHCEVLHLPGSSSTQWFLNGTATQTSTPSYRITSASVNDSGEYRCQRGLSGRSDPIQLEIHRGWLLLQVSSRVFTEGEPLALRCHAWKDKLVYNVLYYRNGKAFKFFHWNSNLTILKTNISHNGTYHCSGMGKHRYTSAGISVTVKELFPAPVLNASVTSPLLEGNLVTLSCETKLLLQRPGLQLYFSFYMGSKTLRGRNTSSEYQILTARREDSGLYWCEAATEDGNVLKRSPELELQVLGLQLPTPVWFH

B1: GpH7-A5/GpH7-B3 variant Q295_14T/GpL16-k0 (antibody, human IgG1, kappa)
heavy 1: not shown
heavy 2: not shown
light: DIVMTQSPLSLPVTPGEPASISCQASESLVHSNRNTYLHWYLQKPGQSPQLLIYKVSNRFSGVPDRFSGSGSGTDFTLKISRVEAEDVGVYYCSQNTHVPPTFGQGTKVEIERTVAAPSVFIFPPSDEQLKSGTASVVCLLNNFYPREAKVQWKVDNALQSGNSQESVTEQDSKDSTYSLSSTLTLSKADYEKHKVYACEVTHQGLSSPVTKSFNRGEC
notes: He Ab; IgG1, mutation in one H chain
He/Con_2b [1]: 66.8 % of HeCon Ab (GpH7-A5/GpH7-B3/GpL16-k0 = 100)
He/Con_1a [2]: 103 % of HeCon Ab (GpH7-A5/GpH7-B3/GpL16-k0 = 100)

B2: GpH7-A5/GpH7-B3 variant S298_14T/GpL16-k0 (antibody, human IgG1, kappa)
heavy 1: not shown
heavy 2: not shown
light: DIVMTQSPLSLPVTPGEPASISCQASESLVHSNRNTYLHWYLQKPGQSPQLLIYKVSNRFSGVPDRFSGSGSGTDFTLKISRVEAEDVGVYYCSQNTHVPPTFGQGTKVEIERTVAAPSVFIFPPSDEQLKSGTASVVCLLNNFYPREAKVQWKVDNALQSGNSQESVTEQDSKDSTYSLSSTLTLSKADYEKHKVYACEVTHQGLSSPVTKSFNRGEC
notes: as for B1
He/Con_2b [1]: 77.9 % of HeCon Ab (GpH7-A5/GpH7-B3/GpL16-k0 = 100)
He/Con_1a [2]: 107 % of HeCon Ab (GpH7-A5/GpH7-B3/GpL16-k0 = 100)

B3: GpH7-A5/GpH7-B3 variant Q295_16H/GpL16-k0 (antibody, human IgG1, kappa)
heavy 1: not shown
heavy 2: not shown
light: DIVMTQSPLSLPVTPGEPASISCQASESLVHSNRNTYLHWYLQKPGQSPQLLIYKVSNRFSGVPDRFSGSGSGTDFTLKISRVEAEDVGVYYCSQNTHVPPTFGQGTKVEIERTVAAPSVFIFPPSDEQLKSGTASVVCLLNNFYPREAKVQWKVDNALQSGNSQESVTEQDSKDSTYSLSSTLTLSKADYEKHKVYACEVTHQGLSSPVTKSFNRGEC
notes: as for B1
He/Con_2b [1]: 62.7 % of HeCon Ab (GpH7-A5/GpH7-B3/GpL16-k0 = 100)
He/Con_1a [2]: 102 % of HeCon Ab (GpH7-A5/GpH7-B3/GpL16-k0 = 100)

B4: GpH7-A5/GpH7-B3 variant Q295_15Y/GpL16-k0 (antibody, human IgG1, kappa)
heavy 1: not shown
heavy 2: not shown
light: DIVMTQSPLSLPVTPGEPASISCQASESLVHSNRNTYLHWYLQKPGQSPQLLIYKVSNRFSGVPDRFSGSGSGTDFTLKISRVEAEDVGVYYCSQNTHVPPTFGQGTKVEIERTVAAPSVFIFPPSDEQLKSGTASVVCLLNNFYPREAKVQWKVDNALQSGNSQESVTEQDSKDSTYSLSSTLTLSKADYEKHKVYACEVTHQGLSSPVTKSFNRGEC
notes: as for B1
He/Con_2b [1]: 65.4 % of HeCon Ab (GpH7-A5/GpH7-B3/GpL16-k0 = 100)
He/Con_1a [2]: 102 % of HeCon Ab (GpH7-A5/GpH7-B3/GpL16-k0 = 100)

B5: GpH7-A5/GpH7-B3 variant S298_07I/GpL16-k0 (antibody, human IgG1, kappa)
heavy 1: not shown
heavy 2: not shown
light: DIVMTQSPLSLPVTPGEPASISCQASESLVHSNRNTYLHWYLQKPGQSPQLLIYKVSNRFSGVPDRFSGSGSGTDFTLKISRVEAEDVGVYYCSQNTHVPPTFGQGTKVEIERTVAAPSVFIFPPSDEQLKSGTASVVCLLNNFYPREAKVQWKVDNALQSGNSQESVTEQDSKDSTYSLSSTLTLSKADYEKHKVYACEVTHQGLSSPVTKSFNRGEC
notes: as for B1
He/Con_2b [1]: 70.6 % of HeCon Ab (GpH7-A5/GpH7-B3/GpL16-k0 = 100)
He/Con_1a [2]: 107 % of HeCon Ab (GpH7-A5/GpH7-B3/GpL16-k0 = 100)

B6: GpH7-A5/GpH7-B3 variant S298_10E/GpL16-k0 (antibody, human IgG1, kappa)
heavy 1: not shown
heavy 2: not shown
light: DIVMTQSPLSLPVTPGEPASISCQASESLVHSNRNTYLHWYLQKPGQSPQLLIYKVSNRFSGVPDRFSGSGSGTDFTLKISRVEAEDVGVYYCSQNTHVPPTFGQGTKVEIERTVAAPSVFIFPPSDEQLKSGTASVVCLLNNFYPREAKVQWKVDNALQSGNSQESVTEQDSKDSTYSLSSTLTLSKADYEKHKVYACEVTHQGLSSPVTKSFNRGEC
notes: as for B1
He/Con_2b [1]: 47.6 % of HeCon Ab (GpH7-A5/GpH7-B3/GpL16-k0 = 100)
He/Con_1a [2]: 108 % of HeCon Ab (GpH7-A5/GpH7-B3/GpL16-k0 = 100)

B7: GpH7-A5/GpH7-B3 variant S298_12R/GpL16-k0 (antibody, human IgG1, kappa)
heavy 1: not shown
heavy 2: not shown
light: DIVMTQSPLSLPVTPGEPASISCQASESLVHSNRNTYLHWYLQKPGQSPQLLIYKVSNRFSGVPDRFSGSGSGTDFTLKISRVEAEDVGVYYCSQNTHVPPTFGQGTKVEIERTVAAPSVFIFPPSDEQLKSGTASVVCLLNNFYPREAKVQWKVDNALQSGNSQESVTEQDSKDSTYSLSSTLTLSKADYEKHKVYACEVTHQGLSSPVTKSFNRGEC
notes: as for B1
He/Con_2b [1]: 57.8 % of HeCon Ab (GpH7-A5/GpH7-B3/GpL16-k0 = 100)
He/Con_1a [2]: 109 % of HeCon Ab (GpH7-A5/GpH7-B3/GpL16-k0 = 100)

B8: GpH7-A5/GpH7-B3 variant S298_03V/GpL16-k0 (antibody, human IgG1, kappa)
heavy 1: not shown
heavy 2: not shown
light: DIVMTQSPLSLPVTPGEPASISCQASESLVHSNRNTYLHWYLQKPGQSPQLLIYKVSNRFSGVPDRFSGSGSGTDFTLKISRVEAEDVGVYYCSQNTHVPPTFGQGTKVEIERTVAAPSVFIFPPSDEQLKSGTASVVCLLNNFYPREAKVQWKVDNALQSGNSQESVTEQDSKDSTYSLSSTLTLSKADYEKHKVYACEVTHQGLSSPVTKSFNRGEC
notes: as for B1
He/Con_2b [1]: 64.5 % of HeCon Ab (GpH7-A5/GpH7-B3/GpL16-k0 = 100)
He/Con_1a [2]: 110 % of HeCon Ab (GpH7-A5/GpH7-B3/GpL16-k0 = 100)

B9: GpH7-A5/GpH7-B3 variant S298_09D/GpL16-k0 (antibody, human IgG1, kappa)
heavy 1: not shown
heavy 2: not shown
light: DIVMTQSPLSLPVTPGEPASISCQASESLVHSNRNTYLHWYLQKPGQSPQLLIYKVSNRFSGVPDRFSGSGSGTDFTLKISRVEAEDVGVYYCSQNTHVPPTFGQGTKVEIERTVAAPSVFIFPPSDEQLKSGTASVVCLLNNFYPREAKVQWKVDNALQSGNSQESVTEQDSKDSTYSLSSTLTLSKADYEKHKVYACEVTHQGLSSPVTKSFNRGEC
notes: as for B1
He/Con_2b [1]: 48.3 % of HeCon Ab (GpH7-A5/GpH7-B3/GpL16-k0 = 100)
He/Con_1a [2]: 106 % of HeCon Ab (GpH7-A5/GpH7-B3/GpL16-k0 = 100)

B10: GpH7-A5/GpH7-B3 variant S298_01G/GpL16-k0 (antibody, human IgG1, kappa)
heavy 1: not shown
heavy 2: not shown
light: DIVMTQSPLSLPVTPGEPASISCQASESLVHSNRNTYLHWYLQKPGQSPQLLIYKVSNRFSGVPDRFSGSGSGTDFTLKISRVEAEDVGVYYCSQNTHVPPTFGQGTKVEIERTVAAPSVFIFPPSDEQLKSGTASVVCLLNNFYPREAKVQWKVDNALQSGNSQESVTEQDSKDSTYSLSSTLTLSKADYEKHKVYACEVTHQGLSSPVTKSFNRGEC
notes: as for B1
He/Con_2b [1]: 80.1 % of HeCon Ab (GpH7-A5/GpH7-B3/GpL16-k0 = 100)
He/Con_1a [2]: 104 % of HeCon Ab (GpH7-A5/GpH7-B3/GpL16-k0 = 100)

B11: GpH7-A5/GpH7-B3 variant S298_02A/GpL16-k0 (antibody, human IgG1, kappa)
heavy 1: not shown
heavy 2: not shown
light: DIVMTQSPLSLPVTPGEPASISCQASESLVHSNRNTYLHWYLQKPGQSPQLLIYKVSNRFSGVPDRFSGSGSGTDFTLKISRVEAEDVGVYYCSQNTHVPPTFGQGTKVEIERTVAAPSVFIFPPSDEQLKSGTASVVCLLNNFYPREAKVQWKVDNALQSGNSQESVTEQDSKDSTYSLSSTLTLSKADYEKHKVYACEVTHQGLSSPVTKSFNRGEC
notes: as for B1
He/Con_2b [1]: 73.4 % of HeCon Ab (GpH7-A5/GpH7-B3/GpL16-k0 = 100)
He/Con_1a [2]: 107 % of HeCon Ab (GpH7-A5/GpH7-B3/GpL16-k0 = 100)

B12: GpH7-A5/GpH7-B3 variant S298_04F/GpL16-k0 (antibody, human IgG1, kappa)
heavy 1: not shown
heavy 2: not shown
light: DIVMTQSPLSLPVTPGEPASISCQASESLVHSNRNTYLHWYLQKPGQSPQLLIYKVSNRFSGVPDRFSGSGSGTDFTLKISRVEAEDVGVYYCSQNTHVPPTFGQGTKVEIERTVAAPSVFIFPPSDEQLKSGTASVVCLLNNFYPREAKVQWKVDNALQSGNSQESVTEQDSKDSTYSLSSTLTLSKADYEKHKVYACEVTHQGLSSPVTKSFNRGEC
notes: as for B1
He/Con_2b [1]: 65.4 % of HeCon Ab (GpH7-A5/GpH7-B3/GpL16-k0 = 100)
He/Con_1a [2]: 109 % of HeCon Ab (GpH7-A5/GpH7-B3/GpL16-k0 = 100)

B13: GpH7-A5/GpH7-B3 variant S298_15Y/GpL16-k0 (antibody, human IgG1, kappa)
heavy 1: not shown
heavy 2: not shown
light: DIVMTQSPLSLPVTPGEPASISCQASESLVHSNRNTYLHWYLQKPGQSPQLLIYKVSNRFSGVPDRFSGSGSGTDFTLKISRVEAEDVGVYYCSQNTHVPPTFGQGTKVEIERTVAAPSVFIFPPSDEQLKSGTASVVCLLNNFYPREAKVQWKVDNALQSGNSQESVTEQDSKDSTYSLSSTLTLSKADYEKHKVYACEVTHQGLSSPVTKSFNRGEC
notes: as for B1
He/Con_2b [1]: 61.4 % of HeCon Ab (GpH7-A5/GpH7-B3/GpL16-k0 = 100)
He/Con_1a [2]: 107 % of HeCon Ab (GpH7-A5/GpH7-B3/GpL16-k0 = 100)

B14: GpH7-A5/GpH7-B3 variant S298_11K/GpL16-k0 (antibody, human IgG1, kappa)
heavy 1: not shown
heavy 2: not shown
light: DIVMTQSPLSLPVTPGEPASISCQASESLVHSNRNTYLHWYLQKPGQSPQLLIYKVSNRFSGVPDRFSGSGSGTDFTLKISRVEAEDVGVYYCSQNTHVPPTFGQGTKVEIERTVAAPSVFIFPPSDEQLKSGTASVVCLLNNFYPREAKVQWKVDNALQSGNSQESVTEQDSKDSTYSLSSTLTLSKADYEKHKVYACEVTHQGLSSPVTKSFNRGEC
notes: as for B1
He/Con_2b [1]: 61.3 % of HeCon Ab (GpH7-A5/GpH7-B3/GpL16-k0 = 100)
He/Con_1a [2]: 109 % of HeCon Ab (GpH7-A5/GpH7-B3/GpL16-k0 = 100)

B15: GpH7-A5/GpH7-B3 variant Q295_18N/GpL16-k0 (antibody, human IgG1, kappa)
heavy 1: not shown
heavy 2: not shown
light: DIVMTQSPLSLPVTPGEPASISCQASESLVHSNRNTYLHWYLQKPGQSPQLLIYKVSNRFSGVPDRFSGSGSGTDFTLKISRVEAEDVGVYYCSQNTHVPPTFGQGTKVEIERTVAAPSVFIFPPSDEQLKSGTASVVCLLNNFYPREAKVQWKVDNALQSGNSQESVTEQDSKDSTYSLSSTLTLSKADYEKHKVYACEVTHQGLSSPVTKSFNRGEC
notes: as for B1
He/Con_2b [1]: 64.9 % of HeCon Ab (GpH7-A5/GpH7-B3/GpL16-k0 = 100)
He/Con_1a [2]: 102 % of HeCon Ab (GpH7-A5/GpH7-B3/GpL16-k0 = 100)
